Laboratory results reported in paper PMC3772987.

Legend:
His6-BosR = His6-BosR (Borrelia burgdorferi B31, UniProt O51592 2-176); assay: fluorescence anisotropy
BosR tag-free = BosR tag-free (Borrelia burgdorferi B31, UniProt O51592 1-176, M1R); assay: fluorescence anisotropy

| Binder | Kd (His6-BosR) [nM] | Kd (BosR tag-free) [nM] |
| --- | --- | --- |
| FPospAB (dsDNA) DNA 1: TAATCTTATAATATAATTATACTT DNA 2: AAGTATAATTATATTATAAGATTA | 222 | 307 |
| FPospD (dsDNA) DNA 1: ATAATTGATATTAAAATATAATTGAT DNA 2: ATCAATTATATTTTAATATCAATTAT | 262 | 332 |
